± gives the uncertainty stated by the source.
B1: Cyclin-F, residues 28 to 80; numbered along this chain, P41002 (parent)
chain: RNLTILSLPEDVLFHILKWLSVEDILAVRAVHSQLKDLVDNHASVWACASFQE

Variants of: B1
Test: abundance fitness (aPCA) (normalised: wild type 0, dead -1); higher = more abundant; growth selection in yeast, the domain comes from the species named
Details: Homo sapiens

Variant	abundance fitness
RNLTILSLPEDVLFHILKWLSVEDILAVRAVHSQLKDLVDNHASVWACRSFQE [A49R]	0.037 ± 0.08
RNLTILSLPEDVLFHILKWLSVEDILAVRAVHSQLKDLVDNHASVWACPSFQE [A49P]	0.126 ± 0.13
RNLTILSLPEDVLFHILKWLSVEDILAVRAVHSQLKDLVDNHASVWACHSFQE [A49H]	-0.091 ± 0.16
RNLTILSLPEDVLFHILKWLSVEDILAVRAVHSQLKDLVDNHASVWACISFQE [A49I]	-0.409 ± 0.23
RNLTILSLPEDVLFHILKWLSVEDILAVRAVHSQLKDLVDNHASVWACQSFQE [A49Q]	0.088 ± 0.15
RNLTILSLPEDVLFHILKWLSVEDILAVRAVHSQLKDLVDNHASVWACGSFQE [A49G]	0.089 ± 0.073
RNLTILSLPEDVLFHILKWLSVEDILAVRAVHSQLKDLVDNHASVWACKSFQE [A49K]	0.17 ± 0.13
RNLTILSLPEDVLFHILKWLSVEDILAVRAVHSQLKDLVDNHASVWACSSFQE [A49S]	0.092 ± 0.078
RNLTILSLPEDVLFHILKWLSVEDILAVRAVHSQLKDLVDNHASVWACYSFQE [A49Y]	-0.341 ± 0.25
RNLTILSLPEDVLFHILKWLSVEDILAVRAVHSQLKDLVDNHASVWACESFQE [A49E]	-0.125 ± 0.14
RNLTILSLPEDVLFHILKWLSVEDILAVRAVHSQLKDLVDNHASVWACCSFQE [A49C]	-0.185 ± 0.12
RNLTILSLPEDVLFHILKWLSVEDILAVRAVHSQLKDLVDNHASVWACWSFQE [A49W]	-0.443 ± 0.12
RNLTILSLPEDVLFHILKWLSVEDILAVRAVHSQLKDLVDNHASVWACFSFQE [A49F]	-0.663 ± 0.24
RNLTILSLPEDVLFHILKWLSVEDILAVRAVHSQLKDLVDNHASVWACMSFQE [A49M]	-0.51 ± 0.18
RNLTILSLPEDVLFHILKWLSVEDILAVRAVHSQLKDLVDNHASVWACDSFQE [A49D]	0.248 ± 0.12
RNLTILSLPEDVLFHILKWLSVEDILAVRAVHSQLKDLVDNHASVWACLSFQE [A49L]	-0.395 ± 0.1
RNLTILSLPEDVLFHILKWLSVEDILAVRAVHSQLKDLVDNHASVWACVSFQE [A49V]	-0.609 ± 0.11
RNLTILSLPEDVLFHILKWLSVEDILAVRAVHSQLKDLVDNHASVWAMASFQE [C48M]	-0.238 ± 0.13
RNLTILSLPEDVLFHILKWLSVEDILAVRAVHSQLKDLVDNHASVWANASFQE [C48N]	0.184 ± 0.17
RNLTILSLPEDVLFHILKWLSVEDILAVRAVHSQLKDLVDNHASVWADASFQE [C48D]	-0.14 ± 0.2
RNLTILSLPEDVLFHILKWLSVEDILAVRAVHSQLKDLVDNHASVWAQASFQE [C48Q]	-0.246 ± 0.17
RNLTILSLPEDVLFHILKWLSVEDILAVRAVHSQLKDLVDNHASVWAFASFQE [C48F]	-0.364 ± 0.13
RNLTILSLPEDVLFHILKWLSVEDILAVRAVHSQLKDLVDNHASVWAGASFQE [C48G]	0.179 ± 0.088
RNLTILSLPEDVLFHILKWLSVEDILAVRAVHSQLKDLVDNHASVWATASFQE [C48T]	-0.066 ± 0.12
RNLTILSLPEDVLFHILKWLSVEDILAVRAVHSQLKDLVDNHASVWARASFQE [C48R]	-0.321 ± 0.1

Variant	abundance fitness
RNLTILSLPEDVLFHILKWLSVEDILAVRAVHSQLKDLVDNHASVWAHASFQE [C48H]	-0.302 ± 0.15
RNLTILSLPEDVLFHILKWLSVEDILAVRAVHSQLKDLVDNHASVWAWASFQE [C48W]	-0.312 ± 0.11
RNLTILSLPEDVLFHILKWLSVEDILAVRAVHSQLKDLVDNHASVWAPASFQE [C48P]	0.42 ± 0.12
RNLTILSLPEDVLFHILKWLSVEDILAVRAVHSQLKDLVDNHASVWAKASFQE [C48K]	-0.307 ± 0.16
RNLTILSLPEDVLFHILKWLSVEDILAVRAVHSQLKDLVDNHASVWAVASFQE [C48V]	-0.406 ± 0.093
RNLTILSLPEDVLFHILKWLSVEDILAVRAVHSQLKDLVDNHASVWAIASFQE [C48I]	-0.306 ± 0.18
RNLTILSLPEDVLFHILKWLSVEDILAVRAVHSQLKDLVDNHASVWAYASFQE [C48Y]	-0.367 ± 0.12
RNLTILSLPEDVLFHILKWLSVEDILAVRAVHSQLKDLVDNHASVWALASFQE [C48L]	0.075 ± 0.085
RNLTILSLPEDVLFHILKWLSVEDILAVRAVHSQLKDLVDNHASVWASASFQE [C48S]	0.14 ± 0.095
RNLTILSLPEDVLFHILKWLSVEDILAVRAVHSQLKDLVDNHASVWAAASFQE [C48A]	-0.232 ± 0.11
RNLTILSLPEDVLFHILKWLSVEDILAVRAVHSQLKDLVDNHASVWACASFCE [Q52C]	-0.213 ± 0.2
RNLTILSLPEDVLFHILKWLSVEDILAVRAVHSQLKDLVDNHASVWACASFIE [Q52I]	-0.109 ± 0.48
RNLTILSLPEDVLFHILKWLSVEDILAVRAVHSQLKDLVDNHASVWACASFRE [Q52R]	-0.02 ± 0.1
RNLTILSLPEDVLFHILKWLSVEDILAVRAVHSQLKDLVDNHASVWACASFEE [Q52E]	-0.39 ± 0.22
RNLTILSLPEDVLFHILKWLSVEDILAVRAVHSQLKDLVDNHASVWACASFLE [Q52L]	-0.07 ± 0.097
RNLTILSLPEDVLFHILKWLSVEDILAVRAVHSQLKDLVDNHASVWACASFNE [Q52N]	-0.286 ± 0.19
RNLTILSLPEDVLFHILKWLSVEDILAVRAVHSQLKDLVDNHASVWACASFVE [Q52V]	-0.123 ± 0.1
RNLTILSLPEDVLFHILKWLSVEDILAVRAVHSQLKDLVDNHASVWACASFFE [Q52F]	-0.241 ± 0.22
RNLTILSLPEDVLFHILKWLSVEDILAVRAVHSQLKDLVDNHASVWACASFWE [Q52W]	-0.19 ± 0.18
RNLTILSLPEDVLFHILKWLSVEDILAVRAVHSQLKDLVDNHASVWACASFHE [Q52H]	-0.108 ± 0.33
RNLTILSLPEDVLFHILKWLSVEDILAVRAVHSQLKDLVDNHASVWACASFPE [Q52P]	-0.377 ± 0.16
RNLTILSLPEDVLFHILKWLSVEDILAVRAVHSQLKDLVDNHASVWACASFDE [Q52D]	-0.296 ± 0.27
RNLTILSLPEDVLFHILKWLSVEDILAVRAVHSQLKDLVDNHASVWACASFKE [Q52K]	0.011 ± 0.17
RNLTILSLPEDVLFHILKWLSVEDILAVRAVHSQLKDLVDNHASVWACASFTE [Q52T]	-0.135 ± 0.11

Source: the Human Domainome abundance scans (Beltran et al. 2025)
